For test [1], the target named is T1, human Fzd10 hinge region (human).
T1 construct: also called hFzd10L
T1 peptide: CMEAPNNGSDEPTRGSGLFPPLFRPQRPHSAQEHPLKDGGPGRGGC
The test can be described thus: SPR. The protocol: (§1) Certain VL and VH clones from Table 1 were PCR amplified from the phage clone and sub-cloned into pcDNA3.1 based mammalian expression vectors (Invitrogen/ThermoFisher) of human kappa or lambda light chain and human IgG1 heavy chain, respectively. Candidate IgGs were purified using Protein A affinity resin. The candidate library was captured on an anti-FC lawn. The capture lawn was prepared by direct amine coupling goat anti-human IgG Fc (Southern Biotech #2048-01) at 8000 RU on a HC200M Carterra sensor chip (Carterra 4297). Capture levels were at least 600 RU for each candidate IgG. Binding to all target peptides was measured at 25° by injecting a concentration series of each peptide in 1×PBST+0.5 mg/mL BSA (TEKnova P1192, VWR V0332). All peptides were injected at 4.12 nM, 12.3 nM, 37 nM, 111 nM, 333 nM, and 1000 nM. Two blank injections were run between each peptide concentration series. Each injection started with a one minute baseline determination, followed by a five minute association phase where peptides were injected, and finished with a 10 minute dissociation phase. Binding data was analyzed using NextGenKIT (Carterra). Blank injections and reference locations were subtracted from all runs prior to fitting a 1:1 binding model to the data. […] Interactions with an Rₘₐₓ less than 15 RU or weaker than 5 μM were considered non-binders.
A general note: SPR reads the build-up and loss of mass on a sensor chip optically.

The target in test [2] is T2, mouse Fzd2 hinge region (mouse, UniProt Q9JIP6 155-206, limits assumed).
T2 construct: domain: hinge region; also called mFzd2L
The test can be described thus: SPR. The protocol: as §1

In test [3] the target is T3, mouse Fzd3 hinge region (mouse, UniProt Q61086 133-165, limits assumed).
T3 construct: domain: hinge region; also called mFzd3L
T3 peptide (looked up): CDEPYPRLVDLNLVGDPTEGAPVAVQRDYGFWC
Briefly: SPR. The protocol: as §1

The target in test [4] is T4, mouse Fzd4 hinge region (mouse, UniProt Q61088 158-181, limits assumed).
T4 construct: domain: hinge region; also called mFzd4L
T4 peptide (looked up): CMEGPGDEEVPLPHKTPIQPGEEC
The test can be described thus: SPR. The method, then: as §1

The target in test [5] is T5, mouse Fzd5 hinge region (mouse, UniProt Q9EQD0 147-182, limits assumed).
T5 construct: domain: hinge region; also called mFzd5L
T5 peptide (looked up): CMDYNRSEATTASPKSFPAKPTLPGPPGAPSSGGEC
Briefly: SPR. The method, then: as §1

For test [6], the target named is T6, mouse Fzd6 hinge region (mouse, UniProt Q61089 129-161, limits assumed).
T6 construct: domain: hinge region; also called mFzd6L
T6 peptide (looked up): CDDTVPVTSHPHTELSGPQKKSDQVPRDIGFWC
Briefly: SPR. The method, then:
as §1

Test [7] addresses T7, mouse Fzd7 hinge region (mouse, UniProt Q61090 160-208, limits assumed).
T7 construct: domain: hinge region; also called mFzd7L
T7 peptide (looked up): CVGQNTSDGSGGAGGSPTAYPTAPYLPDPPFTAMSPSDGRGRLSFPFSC
The test can be described thus: SPR. The method, then:
as §1

Test [8] deals with T8, mouse Fzd8 hinge region (mouse, UniProt Q61091 148-225, limits assumed).
T8 construct: domain: hinge region; also called mFzd8L; mFzd8
T8 sequence (peptide, looked up): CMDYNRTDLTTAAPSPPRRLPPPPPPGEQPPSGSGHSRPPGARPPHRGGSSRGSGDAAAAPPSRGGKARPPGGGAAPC
Briefly: SPR. The method, then:
as §1

In test [9] the target is T9, mouse Fzd9 hinge region (mouse, UniProt Q9R216 153-197, limits assumed).
T9 construct: domain: hinge region; also called mFzd9
T9 peptide (looked up): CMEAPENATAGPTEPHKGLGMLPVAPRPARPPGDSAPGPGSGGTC
Briefly: SPR. The method, then: as §1

Test [10] addresses T10, human Fzd2 hinge region (human).
T10 construct: also called hFzd2L
T10 peptide: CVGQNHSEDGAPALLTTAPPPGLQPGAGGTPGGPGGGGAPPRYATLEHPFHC
The test can be described thus: SPR. The method, then:
as §1

Test [11] addresses T11, mouse Fzd10 hinge region (mouse, UniProt Q8BKG4 148-193, limits assumed).
T11 construct: domain: hinge region; also called mFzd10L
T11 peptide (looked up): T1 peptide with T13S, L18M, G44A
Briefly: SPR. The protocol: as §1

Test [12] has as its target T12, human Fzd3 hinge region (human).
T12 construct: also called hFzd3L
T12 peptide: T3 peptide (looked up) with V14A, D16E
The test can be described thus: SPR. The protocol:
as §1

Test [13] has as its target T13, human Fzd4 hinge region (human).
T13 construct: also called hFzd4L
T13 peptide: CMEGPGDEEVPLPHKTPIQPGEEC
Briefly: SPR. The method, then: as §1

In test [14] the target is T14, human Fzd5 hinge region (human).
T14 construct: also called hFzd5L
T14 peptide: T5 peptide (looked up) with S13P, K15R, S16P, S31A
Briefly: SPR. The protocol: as §1

Test [15] addresses T15, human Fzd6 hinge region (human).
T15 construct: also called hFzd6L
T15 peptide: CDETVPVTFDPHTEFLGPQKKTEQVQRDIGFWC
The test can be described thus: SPR. The protocol:
as §1

Test [16] addresses T16, human Fzd9 hinge region (human).
T16 construct: also called hFzd9L; hFzd9
T16 peptide: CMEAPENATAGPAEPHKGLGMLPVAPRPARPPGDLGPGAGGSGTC
Briefly: SPR. The protocol: as §1

The target in test [17] is T17, human Fzd1 hinge region (human).
T17 construct: also called hFzd1L
T17 peptide: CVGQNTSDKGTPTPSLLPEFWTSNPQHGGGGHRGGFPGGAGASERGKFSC
The test can be described thus: SPR; *** = 100 nM > KD > 10 nM. The protocol:
as §1

For test [18], the target named is T18, mouse Fzd1 hinge region (mouse, UniProt O70421 222-271, limits assumed).
T18 construct: domain: hinge region; also called mFzd1L
T18 peptide (looked up): T17 peptide with H32Y, F36Y, A42T, S43V
Briefly: SPR; *** = 100 nM > KD > 10 nM. The method, then: as §1

Test [19] concerns the target Fzd1 CRD (UniProt Q9UP38 105-232). The test can be described thus: BLI (Octet Red 96), biotinylated Fzd1 CRD on streptavidin biosensor. The protocol:
Binding kinetics of monospecific Fzd binders to either (CRD) or the extracellular hinge region (hinge) was determined by bio-layer interferometry (BLI) using Octet Red 96 (PALL ForteBio, Fremont, Calif.) instruments at 30° C., 1000 rpm with streptavidin (SA) biosensors. N-terminal biotinylated Fzd1 or Fzd2 CRD and Fzd1 or Fzd 2 hinge proteins were captured on the SA biosensor. Following capture of biotinylated-Fzd1 or Fzd2, the SA biosensor with captured […] was dipped into wells containing the relevant antibodies at 7 different concentrations in running buffer plus a well with only running buffer as a reference channel. KD was determined by global fitting. As shown in FIGS. 4A-4H these antibody fusion proteins only bound to either Fzd1 or Fzd2 protein with the hinge region, and not to the CRD domains alone.
On the technique in general: In BLI a coated tip is dipped into the sample, and binding shifts an interference pattern.

In test [20] the target is T19, hFzd2L (human, UniProt Q14332 150-201).
T19 construct: ELISA antigen; also called human Fzd2 hinge region; Frizzled 2
Briefly: phage ELISA, antigen on plate. The protocol: Detection of bound phage was determined calorimetrically by turnover of TMB substrate (Thermo Fisher Scientific, Waltham, Mass.) at […] by anti-M13-HRP antibody (GE Healthcare, Pittsburgh, Pa.). Clones were identified as binding to a Fzd receptor when the fold OD 450 nm over background was greater than a threshold level.
(In an ELISA, binding on a coated surface is turned into a signal by an enzyme label.)

Test [21] deals with T17, human Fzd1 hinge region. Briefly: SPR; ** = 1 uM > KD > 100 nM. The method, then:
as §1

The target of test [22] is T18, mouse Fzd1 hinge region. The test can be described thus: SPR; ** = 1 uM > KD > 100 nM. The method, then:
as §1

Where a chain is given by its changes, count along the chain named.

B1: 033S-E02 (antibody, V domains shown)
VH: QVQLVQSGAEVKKPGSSVKVSCKASGGTFTSYAISWVRQAPGQGLEWMGMINPSGGRTTYAQKFQGRVTITADESTSTAYMKLSSLRSEDTAVYYCAIRTIFGVVIDYWGQGTLVTVSS
VL: not shown
notes: human IgG1, human kappa or lambda light chain; also called 33SE2
As a reminder, the KD is the constant that tells how readily two partners part at equilibrium. Read a high KD as a looser complex. Regarding B1, the binding result in test [1], in test [2], in test [3], in [4], in test [5] and in test [6] was “no binding (tested: 5 uM)” each time. The binding result in [7], in test [8], in test [9], in test [10], in [11] and in test [12] was “no binding (tested: 5 uM)” each time. Further, the binding result in test [13], in [14], in test [15] and in test [16] was “no binding (tested: 5 uM)” in each case. Moreover, the KD in test [17] and in [18] was 10 to 100 nM in each case.

B2: 033S-E02 Fab (Fab, V domains shown)
VH: B1 VH
VL: not shown
notes: also called 33SE2
Turning to B2, the binding result in test [19] was “no binding”.

B3: 031S-B02 (antibody, V domains shown)
VH: EVQLLESGGGLVQPGGSLRLSCAASGFTFSSYWMSWVRQAPGKGLEWVSAIGGSGANAYYADSVKGRFTISRDNSKNTLYLQMNSLRAEDTAVYYCVRDTNWAFDLWGQGTMVTVSS
VL: EIVMTQSPATLSVSPGERATLSCRASQSVSGSYLAWYQQKPGQAPRLLIYGASTRATGIPARFSGSGSGTEFTLTISSLQSEDFAVYYCQQYGSSPLTFGQGTKVEIK
notes: also called 31SB2
As for B3, the binding result in test [20] is reported as “binds”.

B4: 033S-B03 Fab (Fab, V domains shown)
VH: QVQLVQSGAEVKKPGSSVKVSCKASGYTFTGQYMHWVRQAPGQGLEWMGGIIPIFGTAHYPQKFQGRVTITADESTSTAYMELSSLRSEDTAVYYCARRSVAAGTPFTDYWGQGTLVTVSS
VL: not shown
notes: also called 33SB3
Take B4: the binding result in [19] is “no binding”.

B5: 033S-D02 (antibody, V domains shown)
VH: QVQLVQSGAEVKKPGSSVKVSCKASGITFTSSAVHWVRQAPGQGLEWLGIINPSGGSTSYAQKFQGRVTITADESTSTAYMELSSLRSEDTAVYYCARRMVYAPYKDVWGKGTMVTVSS
VL: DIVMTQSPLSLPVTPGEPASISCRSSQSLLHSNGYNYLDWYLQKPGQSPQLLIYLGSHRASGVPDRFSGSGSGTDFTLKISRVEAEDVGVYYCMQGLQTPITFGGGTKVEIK
notes: human IgG1, human kappa or lambda light chain; also called 33SD2
For B5, the binding result in [1], in test [2], in test [3], in [4], in test [5] and in test [6] was “no binding (tested: 5 uM)” each time. The binding result in test [7], in test [8], in [9], in [10], in [11] and in test [12] was “no binding (tested: 5 uM)” in each case. Also, the binding result in test [13], in test [14], in test [15] and in test [16] was “no binding (tested: 5 uM)” in each case. Moreover, the KD in test [21] and in test [22] was 100 to 1000 nM throughout.

B6: 033S-D02 Fab (Fab, V domains shown)
VH: B5 VH
VL: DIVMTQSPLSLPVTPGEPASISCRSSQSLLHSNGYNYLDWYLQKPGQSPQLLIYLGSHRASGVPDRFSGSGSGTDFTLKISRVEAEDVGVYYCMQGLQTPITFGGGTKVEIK
notes: also called 33SD2
Consider B6, for which the binding result in test [19] is “no binding”.

For the origin of these results see patent US20220275095A1 (SURROZEN OPERATING, published 2022).
